# Results as given in patent US20040018971A1 (published 2004).
# B1: HER2/neu peptide, position 322, 9 amino acids (peptide)
# peptide: VTAEDGTQR
# notes: Synthetic peptide; also called Her2/neu.322 (9-mer)
# Assays:
# HLA-DR3 = HLA-DR3 (human); test: competitive inhibition of 125I-labeled probe peptide binding to purified HLA-DR3
# [1] = target: T1, HLA-A*0301 (purified HLA class I molecule) (human); test: inhibition of 125I probe peptide binding to purified HLA; ratio to standard peptide
# T1 construct: also called A3
# [2] = target: HLA-A*1101 (purified HLA class I molecule) (human); test: as above
# [3] = target: HLA-A*3101 (purified HLA class I molecule) (human); test: as above
# [4] = target: HLA-A*6801 (purified HLA class I molecule) (human); test: as above
# [5] = target: HLA-A*3301 (purified HLA class I molecule) (human); test: inhibition of 125I probe peptide binding to purified HLA; ratio to standard peptide; minus sign not explained
# HLA-A*0301 = target: T2, HLA-A*0301 (human); test: competition with 125I-labelled standard peptide for purified HLA, gel filtration
# T2 construct: also called A3
# HLA-A*1101 = target: T3, HLA-A*1101 (human); test: as above
# T3 construct: The construct is not described
# HLA-A*3101 = target: T4, HLA-A*3101 (human); test: as above
# T4 construct: The construct is not described
# HLA-A*3301 = target: T5, HLA-A*3301 (human); test: as above
# T5 construct: The construct is not described
# HLA-A*6801 = target: T6, HLA-A*6801 (human); test: as above
# T6 construct: The construct is not described
binder,measurement,setting,value
ARLLDIDETEYHADG [Her2/neu.867],IC50,HLA-DR3,< 1 µM
"GSGAFGTVYK (also called Her2/neu.727 (10-mer)) [HER2/neu peptide, position 727, 10 amino acids]",relative binding ratio,[1],0.066 ratio (IC50 standard / IC50 test)
same,relative binding ratio,[2],0.13 ratio (IC50 standard / IC50 test)
same,relative binding ratio,[3],0.0014 ratio (IC50 standard / IC50 test)
same,relative binding ratio,[4],0.0012 ratio (IC50 standard / IC50 test)
same,relative binding ratio,[5],-0.0013 ratio (IC50 standard / IC50 test)
B1,relative binding ratio,HLA-A*0301,0.0002 ratio (IC50 of standard peptide / IC50 of test peptide)
same,relative binding ratio,HLA-A*1101,0.014 ratio (IC50 of standard peptide / IC50 of test peptide)
same,relative binding ratio,HLA-A*3101,0.0011 ratio (IC50 of standard peptide / IC50 of test peptide)
same,relative binding ratio,HLA-A*3301,0.0037 ratio (IC50 of standard peptide / IC50 of test peptide)
same,relative binding ratio,HLA-A*6801,0.1 ratio (IC50 of standard peptide / IC50 of test peptide)
